Experimental findings from the supplement of paper PMC12042874 are described below.

± gives the uncertainty stated by the source.

The series is described as follows: amyloid nucleation score (Sup35N fusion, yeast selection) (log enrichment); library NNK2; higher = more nucleation; inactive = no reads after selection. The gist of the method: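 The nucleation score, computed with DiMSum, is the log enrichment of output over input reads, centred on the mode score of non-aggregating sequences. Sequences with under 100 input reads were dropped. Reads were generated by Illumina sequencing of plasmid inserts from psi-negative yeast with Sup35N fused to peptides of 20 random codons, induced with 100 μM copper sulfate for 24 hours and grown 7 days at 30°C on medium lacking adenine and uracil.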
In turn, SWLTRIC yielded an amyloid nucleation score of -0.249 ± 0.63. For SWMNYRCRQDMSCCK the value was 0.908 ± 0.47; for SWRENFGWGICCSTVWPRCR, 1.86 ± 0.21; for SWRTWISRCYFTLDDVSKTA, 0.181 ± 0.43. As for SWSCRMEADSGFPAFIGAKK, the figure is -0.47 ± 1. The substance SWVTSYERLRLPLNCMSNDQ displayed an amyloid nucleation score of -0.452 ± 0.42. As for SWYLFGPDR, the figure is -0.433 ± 0.54.

In turn, SYDGERVI registered an amyloid nucleation score of 0.444 ± 0.28. As to SYDLPPFI, the amyloid nucleation score came to 2.57 ± 0.11. With SYECCNKMQDINSMCGKLYW, the amyloid nucleation score was 0.274 ± 1.1. SYFKSTSARCFSFYLCCAKT had an amyloid nucleation score of 6.224 ± 0.05. SYFMTLIVPGRLLWIDLEGV registered an amyloid nucleation score of -0.823 ± 0.63. As for SYIICELNQLLGFKNWHKTC, the figure is 2.83 ± 0.068; as for SYLDILCVRIVSHHCSVSSK, 0.112 ± 0.46; as for SYLHNSN, -1.26 ± 0.78.

On to SYMFDSEVQVRTDFLLFCYI, for which the amyloid nucleation score amounted to 0.346 ± 0.17.

As for SYNDWGFMKVGCL, the amyloid nucleation score was -0.686 ± 0.39. The substance SYNRSKCNSTRLMLKSKTAH displayed an amyloid nucleation score of 1.51 ± 0.47.

Turning to SYPFYVFSSNASSTAVIKLT, the amyloid nucleation score amounted to 1.07 ± 0.19. As for SYSSPHRINGCVIRP, the figure is -0.084 ± 0.54; as for SYVGICGAMNLCSETVSCMV, -0.977 ± 0.41. Consider SYVGVSNGRVVWVRVMANSK, for which the amyloid nucleation score result was “inactive”. As for SYVIGGGSMGQARDRCLSNA, the figure is 1.11 ± 0.23. As for SYVIP, the amyloid nucleation score was -1.06 ± 1. Substance SYVSIWLACWLISFNWSGNG displayed an amyloid nucleation score of 0.713 ± 0.58. As for SYYISHYMSVWISLTDSGCY, the figure is -0.14 ± 0.56; as for SYYYEGGPCWIEDLHGNVYV, 0.183 ± 0.64; as for TAKDAFMFQGLASLS, “inactive”. As for TARLLSPQ, the figure is -0.376 ± 0.76; as for TASKILSGIASYDSRIIQPE, -0.447 ± 0.23. As for TASWNWLGIVRAGF, the figure is 1.08 ± 0.27; as for TCATTDGVR, 1.04 ± 0.21; as for TCCRLILYGILINNLRAWSH, 4.01 ± 0.073. TCELYESHVGTFLHVSSNGT showed an amyloid nucleation score of 1.23 ± 0.12. With TCFMRCRTCNLRVIHSDVF, the amyloid nucleation score worked out at 5.546 ± 0.048. For TCGRYSYSWVFSESKS the value was “inactive”; for TCIGHFSNSQYN, “inactive”.

Consider TCLVCVTEVAHDSHLNRVSH, for which the amyloid nucleation score was 7.08 ± 0.082. For TCQPGRLALNAKERGSGDRL the value was 0.482 ± 0.3; for TDLWSNYLSGNLVENFITCL, -1.96 ± 1.1. The substance TDNMDEMDREYLSCHKFCFG displayed an amyloid nucleation score of 3.69 ± 0.045. As for TDVIYYGYLSRRLQVYVLPS, the figure is -1.55 ± 1.1; as for TECYLDVHLLHCRCALRSTP, 6.83 ± 0.069; as for TEIKSCKDNTHVHMHSLIRA, 0.384 ± 0.43. Consider TFEYCSLYVGCNQGNLVITT, for which the amyloid nucleation score turned out to be 6.575 ± 0.041.

For the substance TFGLWPPQGMAIRGMRVNMN, the amyloid nucleation score result was “inactive”.

Regarding TFIVMKIHYRFKVKLICQTC, the amyloid nucleation score was 0.681 ± 0.46. Take TFLIGTV: the amyloid nucleation score is -1.01 ± 0.5. As for TFNVPKMESVRPPG, the figure is 0.796 ± 0.52.

In turn, TFPSISTFARSLFFVYQVYP yielded an amyloid nucleation score of -1.13 ± 1.1. For TFQSYRDESFSWSRLVSSQR the value was -0.477 ± 0.26; for TFRAMAFVIFAGWLIRYDRR, “inactive”; for TFRRTVNGNMRGQMPTNWAF, 0.537 ± 0.22. In turn, TFSFFATVDQMFCCVGRCEW yielded an amyloid nucleation score of 8.132 ± 0.03. As for TFTGLFKKLI, the entry is “inactive”.

Take TFVKGKMFNLTRVWVLPYWT: the amyloid nucleation score is 0.318 ± 0.46.
